These results are taken from US5532348 (United States of America, dated 1996).

The target of one test is T1, GST fusion to HPV 11 E6 (human papillomavirus type 11, UniProt P04019).
T1 sequence: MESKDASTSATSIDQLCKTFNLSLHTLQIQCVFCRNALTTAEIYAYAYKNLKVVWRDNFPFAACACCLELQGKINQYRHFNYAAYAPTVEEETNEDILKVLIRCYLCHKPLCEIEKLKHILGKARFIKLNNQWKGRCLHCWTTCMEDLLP
The experiment in a line: GST pull-down of 35S-labelled translate, no p53.

A further test has as its target GST (with no fusion) (Schistosoma japonicum (Blood fluke), UniProt P08515 = GST). Kind of test: GST pull-down of 35S-labelled translate, no p53.
For test [1], the target named is T2, HPV11 E6, wheat germ extract translated (human papillomavirus type 11, UniProt P04019).
T2 sequence: T1 sequence
The experiment in a line: GST-E6-AP fusion on glutathione-Sepharose, 35S-labelled E6.

Test [2] has as its target GST-p53 (glutathione S-transferase fusion of wild-type p53) (Homo sapiens (Human), UniProt P04637). Kind of test: GST-p53 pull-down of 35S-labelled E6-AP variant in the presence of HPV16 E6.

B1: 95 kd in vitro translated form of E6-AP (amino acids 37 to 865 of SEQ ID NO:1) (other)
chain: EACTNEFCASCPTFLRMDNKAAAIKALELYKINAKLCDPHPSKKGASSAYLENSKGAPNNSCSEIKMNKKGARIDFKDVTYLTEEKVYEILELCREREDYSPLIRVIGRVFSSAEALVQSFRKVKQHTKEELKSLQAKDEDKDEDEKEKAACSAAAMEEDSEEASSSRIGDSSQGDNNLQKLGPDDVSVDIDAIRRVYTRLLSNEKIETAFLNALVYLSPNVECDLTYHNVYSRDPNYLNLFIIGMENRNLHSPEYLEMALPLFCKAMSKLPLAAQGKLIRLWSKYNADQIRRMMETFQQLITYKVISNEFNSRNLVNDDDAIVAASKCLKMVYYANVVGGEVDTNHNEEDDEEPIPESSELTLQELLGEERRNKKGLRVDPLETELGVKTLDCRKPLIPFEEFINEPLNEVLEMDKDYTFFKVETENKFSFMTCPFILNAVTKNLGLYYDNRIRMYSERRITVLTSLVQGQQLNPYLRLKVRRKHIIDDALVRLEMIAMENPADLKKQLYVEFEGEQGVDEGGVSKEFFQLVVEEIFNPDIGMFTYDESTKLFWFNPSSFETEGQFTLIGIVLGLAIYNNCILDVHGPMVVYRKLMGKKGTFRDLGDSHPVLYQSLKDLLEYVGNVEDDMMITFQISQTNLFQNPMMYDLKENGDKIPITNENRKEFVNLYSDYILNKSVEKQFKAFRRGRHMVTNESPLKYLFRPEEIELLICGSRNLDFQALEETTEYDGGYTRDSVLIREFWEIVHSFTDEQKRLFLQFTTGRDRAPVGGLGKLKMIIAKNGPDTERLPTSHTCFNVLLLPEYSSKEKLKERLLKAITYAKGFGM
With B1, the binding result with GST fusion to HPV 11 E6 and with GST (with no fusion) was “no binding” in each case.

B2: GST-75 kDa E6-AP fusion protein (amino acids 212-865 of SEQ ID NO:1) (other)
chain: DNNLQKLGPDDVSVDIDAIRRVYTRLLSNEKIETAFLNALVYLSPNVECDLTYHNVYSRDPNYLNLFIIGMENRNLHSPEYLEMALPLFCKAMSKLPLAAQGKLIRLWSKYNADQIRRMMETFQQLITYKVISNEFNSRNLVNDDDAIVAASKCLKMVYYANVVGGEVDTNHNEEDDEEPIPESSELTLQELLGEERRNKKGLRVDPLETELGVKTLDCRKPLIPFEEFINEPLNEVLEMDKDYTFFKVETENKFSFMTCPFILNAVTKNLGLYYDNRIRMYSERRITVLTSLVQGQQLNPYLRLKVRRKHIIDDALVRLEMIAMENPADLKKQLYVEFEGEQGVDEGGVSKEFFQLVVEEIFNPDIGMFTYDESTKLFWFNPSSFETEGQFTLIGIVLGLAIYNNCILDVHGPMVVYRKLMGKKGTFRDLGDSHPVLYQSLKDLLEYVGNVEDDMMITFQISQTNLFQNPMMYDLKENGDKIPITNENRKEFVNLYSDYILNKSVEKQFKAFRRGRHMVTNESPLKYLFRPEEIELLICGSRNLDFQALEETTEYDGGYTRDSVLIREFWEIVHSFTDEQKRLFLQFTTGRDRAPVGGLGKLKMIIAKNGPDTERLPTSHTCFNVLLLPEYSSKEKLKERLLKAITYAKGFGM
With B2, the binding result in test [1] is listed as “no binding”.

B3: GST-E6-AP fusion protein with amino acids 371 to 440 of SEQ ID NO:1 (SEQ ID NO:2) (other)
chain: ANVVGGEVDTNHNEEDDEEPIPESSELTLQELLGEERRNKKGLRVDPLETELGVKTLDCRKPLIPFEEFI
As to B3, the binding result in test [1] was “no binding”.

B4: E6-AP N-terminally truncated form beginning at amino acid 322 (other)
chain: YNADQIRRMMETFQQLITYKVISNEFNSRNLVNDDDAIVAASKCLKMVYYANVVGGEVDTNHNEEDDEEPIPESSELTLQELLGEERRNKKGLRVDPLETELGVKTLDCRKPLIPFEEFINEPLNEVLEMDKDYTFFKVETENKFSFMTCPFILNAVTKNLGLYYDNRIRMYSERRITVLTSLVQGQQLNPYLRLKVRRKHIIDDALVRLEMIAMENPADLKKQLYVEFEGEQGVDEGGVSKEFFQLVVEEIFNPDIGMFTYDESTKLFWFNPSSFETEGQFTLIGIVLGLAIYNNCILDVHGPMVVYRKLMGKKGTFRDLGDSHPVLYQSLKDLLEYVGNVEDDMMITFQISQTNLFQNPMMYDLKENGDKIPITNENRKEFVNLYSDYILNKSVEKQFKAFRRGRHMVTNESPLKYLFRPEEIELLICGSRNLDFQALEETTEYDGGYTRDSVLIREFWEIVHSFTDEQKRLFLQFTTGRDRAPVGGLGKLKMIIAKNGPDTERLPTSHTCFNVLLLPEYSSKEKLKERLLKAITYAKGFGM
B4: in test [2], the binding result is given as “no binding”.
